# Measured values: article PMC9832876, “PpTCP18 is upregulated by lncRNA5 and controls branch number in peach (Prunus persica) through positive feedback regulation of strigolactone biosynthesis”
# T1: PpTCP18 (Prunus persica, UniProt A0A251PBZ8 1-468)
# T1 sequence: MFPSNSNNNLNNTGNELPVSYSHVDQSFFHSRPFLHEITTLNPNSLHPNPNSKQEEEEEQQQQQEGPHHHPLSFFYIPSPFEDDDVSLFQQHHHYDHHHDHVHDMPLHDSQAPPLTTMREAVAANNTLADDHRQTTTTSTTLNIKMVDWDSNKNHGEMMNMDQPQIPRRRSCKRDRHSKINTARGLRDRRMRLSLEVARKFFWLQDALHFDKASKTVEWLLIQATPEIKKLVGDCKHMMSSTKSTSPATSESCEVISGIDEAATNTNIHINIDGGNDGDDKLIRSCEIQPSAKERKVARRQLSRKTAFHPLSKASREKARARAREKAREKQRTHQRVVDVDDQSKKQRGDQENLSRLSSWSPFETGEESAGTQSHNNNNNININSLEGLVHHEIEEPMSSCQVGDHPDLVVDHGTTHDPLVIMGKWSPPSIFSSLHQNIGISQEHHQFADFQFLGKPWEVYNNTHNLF
# Columns and labels:
# [1] = molecular target: T1, PpTCP18; assay: EMSA; weakened by 100-fold unlabeled probe; Thermo Scientific EMSA kit, manufacturer's instructions; buffer, salt, pH and temperature not stated; conditions: protein: recombinant; tags: MBP; chain copies: 2; label: 5' biotin; blunt
# [2] = molecular target: T1, PpTCP18; assay: EMSA; Thermo Scientific EMSA kit, manufacturer's instructions; buffer, salt, pH and temperature not stated; conditions: protein: recombinant; tags: MBP; chain copies: 2; label: 5' biotin; blunt
Binder,binding result [1],binding result [2]
PpLBO1 promoter probe (dsDNA) DNA 1: GTAAATACTCCAAACCATTACACTAGTGGGTCCTTTACTAATTACATTGTTTTAA DNA 2: TTAAAACAATGTAATTAGTAAAGGACCCACTAGTGTAATGGTTTGGAGTATTTAC,binds,
PpLBO1 mutated probe (GGGTCC to AAAAAA) (dsDNA) DNA 1: GTAAATACTCCAAACCATTACACTAGTAAAAAATTTACTAATTACATTGTTTTAA DNA 2: TTAAAACAATGTAATTAGTAAATTTTTTACTAGTGTAATGGTTTGGAGTATTTAC,,no binding
PpMAX4 promoter probe (dsDNA) DNA 1: ATATTGTAATTTTTCACTGGCATACTGGTCCCTAATCACCAATTAACGCAACAT DNA 2: ATGTTGCGTTAATTGGTGATTAGGGACCAGTATGCCAGTGAAAAATTACAATAT,binds,
PpMAX4 mutated probe (GGTCCC to AAAAAA) (dsDNA) DNA 1: ATATTGTAATTTTTCACTGGCATACTAAAAAATAATCACCAATTAACGCAACAT DNA 2: ATGTTGCGTTAATTGGTGATTATTTTTTAGTATGCCAGTGAAAAATTACAATAT,,no binding
PpMAX3 promoter probe (dsDNA) DNA 1: CGTAACCCTCCATTTAAAAAAGTGGGTCCCAAATCCCAAAGCATGAGTGGATGGAGAGGAA DNA 2: TTCCTCTCCATCCACTCATGCTTTGGGATTTGGGACCCACTTTTTTAAATGGAGGGTTACG,binds,
